In publication PMC5383425, “Differential CLE peptide perception by plant receptors implicated from structural and functional analyses of TDIF-TDR interactions” (PLoS ONE, 2017):
Square brackets hold non-standard residues; d marks the D form. Ends that are not written are not given here. Hyp = O=C(O)[C@@H]1C[C@@H](O)CN1

Columns and labels:
Experiment in all cases: ITC; 0.5–1 mM peptide titrated into 10–40 μM ecdTDR; 25°C; 10 mM sodium citrate, 100 mM NaCl, pH 5.5; fitted to one set of binding sites; MicroCal Auto-iTC200
Settings in all cases: both partners purified
ecdTDR Y188A mutant = target: T1, ecdTDR Y188A mutant (Arabidopsis thaliana, UniProt Q9FII5 30-642, Y188A)
T1 construct: TDR/PXY of A. thaliana, extracellular domain, residues 30-642; source: High Five insect cells (baculovirus), secreted, purified as the wild type (Ni-NTA, size-exclusion chromatography)
T1 sequence (looked up): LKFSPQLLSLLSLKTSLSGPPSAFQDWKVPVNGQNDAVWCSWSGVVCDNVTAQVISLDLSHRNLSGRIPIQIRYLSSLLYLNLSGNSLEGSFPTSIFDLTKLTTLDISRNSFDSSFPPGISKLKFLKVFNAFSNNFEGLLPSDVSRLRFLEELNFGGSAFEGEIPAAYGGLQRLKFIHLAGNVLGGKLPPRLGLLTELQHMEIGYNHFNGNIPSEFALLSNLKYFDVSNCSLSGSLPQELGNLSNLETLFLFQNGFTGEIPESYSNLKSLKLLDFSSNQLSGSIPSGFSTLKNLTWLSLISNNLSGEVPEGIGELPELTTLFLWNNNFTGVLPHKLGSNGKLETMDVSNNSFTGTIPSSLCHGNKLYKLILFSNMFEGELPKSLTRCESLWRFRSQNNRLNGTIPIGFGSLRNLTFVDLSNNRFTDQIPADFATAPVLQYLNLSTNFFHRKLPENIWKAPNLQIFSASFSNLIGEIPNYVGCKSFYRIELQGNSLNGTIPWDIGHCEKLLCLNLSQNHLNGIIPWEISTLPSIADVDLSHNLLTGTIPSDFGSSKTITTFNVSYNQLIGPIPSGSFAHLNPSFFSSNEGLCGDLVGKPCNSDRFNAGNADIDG

ecdTDR R423A mutant = target: T2, ecdTDR R423A mutant (Arabidopsis thaliana, UniProt Q9FII5 30-642, R423A)
T2 construct: TDR/PXY of A. thaliana, extracellular domain, residues 30-642; source: High Five insect cells (baculovirus), secreted, purified as the wild type (Ni-NTA, size-exclusion chromatography)
T2 sequence (looked up): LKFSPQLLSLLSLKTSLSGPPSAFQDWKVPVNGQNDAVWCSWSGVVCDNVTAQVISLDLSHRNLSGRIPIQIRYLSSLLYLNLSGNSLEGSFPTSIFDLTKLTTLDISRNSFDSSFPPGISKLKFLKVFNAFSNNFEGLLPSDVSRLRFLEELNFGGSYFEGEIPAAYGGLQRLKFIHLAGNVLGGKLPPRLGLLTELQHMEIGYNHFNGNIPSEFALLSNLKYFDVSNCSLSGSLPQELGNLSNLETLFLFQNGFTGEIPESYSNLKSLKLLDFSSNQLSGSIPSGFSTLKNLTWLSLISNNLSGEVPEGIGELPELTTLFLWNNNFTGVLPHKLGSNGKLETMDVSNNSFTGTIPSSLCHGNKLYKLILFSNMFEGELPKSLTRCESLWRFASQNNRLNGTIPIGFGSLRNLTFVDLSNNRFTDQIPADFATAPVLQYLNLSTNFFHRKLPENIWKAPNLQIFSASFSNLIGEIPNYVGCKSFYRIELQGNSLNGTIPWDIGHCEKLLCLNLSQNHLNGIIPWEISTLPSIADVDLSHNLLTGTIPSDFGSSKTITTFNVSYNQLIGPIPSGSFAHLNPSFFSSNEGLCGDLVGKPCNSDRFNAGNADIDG

ecdTDR E231A mutant = target: T3, ecdTDR E231A mutant (Arabidopsis thaliana, UniProt Q9FII5 30-642, E231A)
T3 construct: TDR/PXY of A. thaliana, extracellular domain, residues 30-642; source: High Five insect cells (baculovirus), secreted, purified as the wild type (Ni-NTA, size-exclusion chromatography)
T3 sequence (looked up): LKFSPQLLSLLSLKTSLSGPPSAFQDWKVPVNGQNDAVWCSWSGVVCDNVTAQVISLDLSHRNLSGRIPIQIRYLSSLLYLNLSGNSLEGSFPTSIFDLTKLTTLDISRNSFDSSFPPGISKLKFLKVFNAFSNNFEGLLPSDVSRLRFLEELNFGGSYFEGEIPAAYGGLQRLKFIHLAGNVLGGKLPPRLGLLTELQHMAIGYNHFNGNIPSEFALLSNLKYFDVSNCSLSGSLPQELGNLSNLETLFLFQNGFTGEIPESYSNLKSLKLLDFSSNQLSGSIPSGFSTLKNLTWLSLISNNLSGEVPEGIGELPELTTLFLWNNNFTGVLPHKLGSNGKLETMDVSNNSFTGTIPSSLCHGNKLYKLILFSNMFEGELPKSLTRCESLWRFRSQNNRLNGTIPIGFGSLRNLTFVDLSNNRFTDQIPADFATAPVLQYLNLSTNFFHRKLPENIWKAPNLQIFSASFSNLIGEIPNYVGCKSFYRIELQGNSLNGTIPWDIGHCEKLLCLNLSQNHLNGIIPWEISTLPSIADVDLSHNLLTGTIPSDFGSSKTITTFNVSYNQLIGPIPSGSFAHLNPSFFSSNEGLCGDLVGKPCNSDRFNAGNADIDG

[1] = target: T4, ecdTDR Y234 alanine mutant (Arabidopsis thaliana, UniProt Q9FII5 30-642, alanine substitution of Y234)
T4 construct: TDR/PXY of A. thaliana, extracellular domain, residues 30-642; The text says only 'mutational analyses' of Y234; source: High Five insect cells (baculovirus), secreted, purified as the wild type (Ni-NTA, size-exclusion chromatography)
T4 sequence (looked up): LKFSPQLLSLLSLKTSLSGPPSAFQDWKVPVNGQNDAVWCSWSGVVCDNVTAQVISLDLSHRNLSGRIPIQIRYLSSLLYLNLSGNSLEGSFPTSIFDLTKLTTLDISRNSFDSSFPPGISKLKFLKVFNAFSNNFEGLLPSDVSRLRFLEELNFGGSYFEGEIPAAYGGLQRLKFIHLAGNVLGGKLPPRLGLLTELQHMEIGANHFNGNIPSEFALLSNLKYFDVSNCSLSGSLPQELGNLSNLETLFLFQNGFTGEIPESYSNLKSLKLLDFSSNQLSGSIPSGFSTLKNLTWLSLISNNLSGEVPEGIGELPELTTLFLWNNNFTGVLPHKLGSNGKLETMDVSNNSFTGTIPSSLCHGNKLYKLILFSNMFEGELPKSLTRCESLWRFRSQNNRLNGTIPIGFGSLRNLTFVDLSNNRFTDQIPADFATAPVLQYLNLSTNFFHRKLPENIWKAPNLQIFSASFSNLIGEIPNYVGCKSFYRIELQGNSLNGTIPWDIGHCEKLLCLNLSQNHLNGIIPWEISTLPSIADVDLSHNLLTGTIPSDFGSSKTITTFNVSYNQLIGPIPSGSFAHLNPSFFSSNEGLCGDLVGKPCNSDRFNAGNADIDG

Measured: binding result

B1: Tracheary Element Differentiation Inhibitory Factor (TDIF) peptide (peptide)
peptide: HEV[Hyp]SG[Hyp]NPISN
notes: TDIF, the 12-residue CLE peptide processed from CLE41 and CLE44 of A. thaliana; printed as HEV(Hyp)SG(Hyp)NPISN; numbers count on: the 12-residue peptide; CLE44 encodes the same peptide; also called wild type TDIF; wtTDIF; source: synthetic peptide (peptide 2.0)
binds: all assays above
